The source of these data is patent publication US20140011734A1 (Sanofi, published 2014).

Starred links: 1 amine or outer side, 2 acyl side, 3 side chain; linkers in the order of their positions; H or OH if unused. Non-standard residues stand in square brackets, D forms with d. NH(CH2)9CO = O=C(CCCCCCCCCN[*:1])[*:2]; Cha = N[C@@H](CC1CCCCC1)C(=O)O; Chg = N[C@H](C(=O)O)C1CCCCC1; Ac6c = NC1(C(=O)O)CCCCC1; Orn = NCCC[C@H](N)C(=O)O; Dab = NCC[C@H](N)C(=O)O; Nva = CCC[C@H](N)C(=O)O; Dap = NC[C@H](N)C(=O)O; Ac3c = NC1(C(=O)O)CC1; Aib = CC(C)(N)C(=O)O; Ahp = NCCCCCCC(=O)O; Ava = NCCCCC(=O)O; GABA = NCCCC(=O)O

To fix the notation:
B1: Cyclo[Leu-His-Asn-Leu-NH-(CH2)6-CO-Asn-Glu-Arg-Met-Ala] (peptide)
peptide: cyclo(LHNL[Ahp]NERMA)
SMILES: CSCC[C@@H]1NC(=O)[C@H](CCCNC(=N)N)NC(=O)[C@H](CCC(=O)O)NC(=O)[C@H](CC(N)=O)NC(=O)CCCCCCNC(=O)[C@H](CC(C)C)NC(=O)[C@H](CC(N)=O)NC(=O)[C@H](Cc2c[nH]cn2)NC(=O)[C@H](CC(C)C)NC(=O)[C@H](C)NC1=O
B2: Cyclo[Leu-His-Asn-Leu-NH-(CH2)6-CO-Thr-Glu-Arg-Gln-Ala] (peptide)
peptide: cyclo(LHNL[Ahp]TERQA)
SMILES: CC(C)C[C@@H]1NC(=O)[C@H](C)NC(=O)[C@H](CCC(N)=O)NC(=O)[C@H](CCCNC(=N)N)NC(=O)[C@H](CCC(=O)O)NC(=O)[C@H]([C@@H](C)O)NC(=O)CCCCCCNC(=O)[C@H](CC(C)C)NC(=O)[C@H](CC(N)=O)NC(=O)[C@H](Cc2c[nH]cn2)NC1=O
B3: Cyclo[Leu-His-Asn-Leu-NH-(CH2)6-CO-Thr-Glu-Arg-Leu-Ala] (peptide)
peptide: cyclo(LHNL[Ahp]TERLA)
SMILES: CC(C)C[C@@H]1NC(=O)[C@H](C)NC(=O)[C@H](CC(C)C)NC(=O)[C@H](CCCNC(=N)N)NC(=O)[C@H](CCC(=O)O)NC(=O)[C@H]([C@@H](C)O)NC(=O)CCCCCCNC(=O)[C@H](CC(C)C)NC(=O)[C@H](CC(N)=O)NC(=O)[C@H](Cc2c[nH]cn2)NC1=O
B4: Cyclo[Leu-His-Asn-Leu-NH-(CH2)6-CO-Thr-Glu-Arg-Ala-Ala] (peptide)
peptide: cyclo(LHNL[Ahp]TERAA)
SMILES: CC(C)C[C@@H]1NC(=O)[C@H](C)NC(=O)[C@H](C)NC(=O)[C@H](CCCNC(=N)N)NC(=O)[C@H](CCC(=O)O)NC(=O)[C@H]([C@@H](C)O)NC(=O)CCCCCCNC(=O)[C@H](CC(C)C)NC(=O)[C@H](CC(N)=O)NC(=O)[C@H](Cc2c[nH]cn2)NC1=O
B5: Cyclo[Leu-His-Asn-Leu-NH-(CH2)6-CO-Gln-Glu-Arg-Met-Ala] (peptide)
peptide: cyclo(LHNL[Ahp]QERMA)
SMILES: CSCC[C@@H]1NC(=O)[C@H](CCCNC(=N)N)NC(=O)[C@H](CCC(=O)O)NC(=O)[C@H](CCC(N)=O)NC(=O)CCCCCCNC(=O)[C@H](CC(C)C)NC(=O)[C@H](CC(N)=O)NC(=O)[C@H](Cc2c[nH]cn2)NC(=O)[C@H](CC(C)C)NC(=O)[C@H](C)NC1=O
B6: Cyclo[Cha-His-Asn-Leu-NH-(CH2)6-CO-Thr-Glu-Arg-Met-Ala] (peptide)
peptide: cyclo([Cha]HNL[Ahp]TERMA)
SMILES: CSCC[C@@H]1NC(=O)[C@H](CCCNC(=N)N)NC(=O)[C@H](CCC(=O)O)NC(=O)[C@H]([C@@H](C)O)NC(=O)CCCCCCNC(=O)[C@H](CC(C)C)NC(=O)[C@H](CC(N)=O)NC(=O)[C@H](Cc2c[nH]cn2)NC(=O)[C@H](CC2CCCCC2)NC(=O)[C@H](C)NC1=O
B7: Cyclo[Leu-His-Asn-Leu-NH-(CH2)6-CO-Dbu-Glu-Arg-Met-Ala] (peptide)
peptide: cyclo(LHNL[Ahp][Dab]ERMA)
SMILES: CSCC[C@@H]1NC(=O)[C@H](CCCNC(=N)N)NC(=O)[C@H](CCC(=O)O)NC(=O)[C@H](CCN)NC(=O)CCCCCCNC(=O)[C@H](CC(C)C)NC(=O)[C@H](CC(N)=O)NC(=O)[C@H](Cc2c[nH]cn2)NC(=O)[C@H](CC(C)C)NC(=O)[C@H](C)NC1=O
B8: Cyclo[Leu-His-Asn-Leu-NH-(CH2)6-CO-Thr-Glu-Arg-Cha-Ala] (peptide)
peptide: cyclo(LHNL[Ahp]TER[Cha]A)
SMILES: CC(C)C[C@@H]1NC(=O)[C@H](C)NC(=O)[C@H](CC2CCCCC2)NC(=O)[C@H](CCCNC(=N)N)NC(=O)[C@H](CCC(=O)O)NC(=O)[C@H]([C@@H](C)O)NC(=O)CCCCCCNC(=O)[C@H](CC(C)C)NC(=O)[C@H](CC(N)=O)NC(=O)[C@H](Cc2c[nH]cn2)NC1=O
B9: Cyclo[Nva-His-Asn-Leu-NH-(CH2)6-CO-Thr-Glu-Arg-Met-Ala] (peptide)
peptide: cyclo([Nva]HNL[Ahp]TERMA)
SMILES: CCC[C@@H]1NC(=O)[C@H](C)NC(=O)[C@H](CCSC)NC(=O)[C@H](CCCNC(=N)N)NC(=O)[C@H](CCC(=O)O)NC(=O)[C@H]([C@@H](C)O)NC(=O)CCCCCCNC(=O)[C@H](CC(C)C)NC(=O)[C@H](CC(N)=O)NC(=O)[C@H](Cc2c[nH]cn2)NC1=O
B10: Cyclo[Leu-His-Asn-Leu-NH-(CH2)3-CO-Aib-Thr-Glu-Arg-Met-Ala] (peptide)
peptide: cyclo(LHNL[GABA][Aib]TERMA)
SMILES: CSCC[C@@H]1NC(=O)[C@H](CCCNC(=N)N)NC(=O)[C@H](CCC(=O)O)NC(=O)[C@H]([C@@H](C)O)NC(=O)C(C)(C)NC(=O)CCCNC(=O)[C@H](CC(C)C)NC(=O)[C@H](CC(N)=O)NC(=O)[C@H](Cc2c[nH]cn2)NC(=O)[C@H](CC(C)C)NC(=O)[C@H](C)NC1=O
B11: Cyclo[Leu-His-Asn-Leu-Gly-NH-(CH2)4-CO-Thr-Glu-Arg-Met-Ala] (peptide)
peptide: cyclo(LHNLG[Ava]TERMA)
SMILES: CSCC[C@@H]1NC(=O)[C@H](CCCNC(=N)N)NC(=O)[C@H](CCC(=O)O)NC(=O)[C@H]([C@@H](C)O)NC(=O)CCCCNC(=O)CNC(=O)[C@H](CC(C)C)NC(=O)[C@H](CC(N)=O)NC(=O)[C@H](Cc2c[nH]cn2)NC(=O)[C@H](CC(C)C)NC(=O)[C@H](C)NC1=O
B12: Cyclo[Leu-His-Asn-Leu-Dpr-NH-(CH2)3-CO-Thr-Glu-Arg-Met-Ala] (peptide)
peptide: cyclo(LHNL[Dap][GABA]TERMA)
SMILES: CSCC[C@@H]1NC(=O)[C@H](CCCNC(=N)N)NC(=O)[C@H](CCC(=O)O)NC(=O)[C@H]([C@@H](C)O)NC(=O)CCCNC(=O)[C@H](CN)NC(=O)[C@H](CC(C)C)NC(=O)[C@H](CC(N)=O)NC(=O)[C@H](Cc2c[nH]cn2)NC(=O)[C@H](CC(C)C)NC(=O)[C@H](C)NC1=O
B13: Cyclo[Leu-Orn-Asn-Leu-NH-(CH2)6-CO-Thr-Glu-Arg-Met-Ala] (peptide)
peptide: cyclo(L[Orn]NL[Ahp]TERMA)
SMILES: CSCC[C@@H]1NC(=O)[C@H](CCCNC(=N)N)NC(=O)[C@H](CCC(=O)O)NC(=O)[C@H]([C@@H](C)O)NC(=O)CCCCCCNC(=O)[C@H](CC(C)C)NC(=O)[C@H](CC(N)=O)NC(=O)[C@H](CCCN)NC(=O)[C@H](CC(C)C)NC(=O)[C@H](C)NC1=O
B14: Cyclo[Leu-His-Asn-Leu-NH-(CH2)9-CO-Thr-Glu-Arg-Met-Ala] (peptide)
peptide: cyclo(LHNL[NH(CH2)9CO]TERMA)
SMILES: CSCC[C@@H]1NC(=O)[C@H](CCCNC(=N)N)NC(=O)[C@H](CCC(=O)O)NC(=O)[C@H]([C@@H](C)O)NC(=O)CCCCCCCCCNC(=O)[C@H](CC(C)C)NC(=O)[C@H](CC(N)=O)NC(=O)[C@H](Cc2c[nH]cn2)NC(=O)[C@H](CC(C)C)NC(=O)[C@H](C)NC1=O
B15: Cyclo[Leu-His-Asn-Leu-NH-(CH2)3-CO-Ac3-Thr-Glu-Arg-Met-Ala] (peptide)
peptide: cyclo(LHNL[GABA][Ac3c]TERMA)
SMILES: CSCC[C@@H]1NC(=O)[C@H](CCCNC(=N)N)NC(=O)[C@H](CCC(=O)O)NC(=O)[C@H]([C@@H](C)O)NC(=O)C2(CC2)NC(=O)CCCNC(=O)[C@H](CC(C)C)NC(=O)[C@H](CC(N)=O)NC(=O)[C@H](Cc2c[nH]cn2)NC(=O)[C@H](CC(C)C)NC(=O)[C@H](C)NC1=O
B16: Cyclo[Leu-His-Asn-Leu-NH-(CH2)6-CO-Thr-Glu-Arg-Chg-Ala] (peptide)
peptide: cyclo(LHNL[Ahp]TER[Chg]A)
SMILES: CC(C)C[C@@H]1NC(=O)[C@H](C)NC(=O)[C@H](C2CCCCC2)NC(=O)[C@H](CCCNC(=N)N)NC(=O)[C@H](CCC(=O)O)NC(=O)[C@H]([C@@H](C)O)NC(=O)CCCCCCNC(=O)[C@H](CC(C)C)NC(=O)[C@H](CC(N)=O)NC(=O)[C@H](Cc2c[nH]cn2)NC1=O

The target in one test is T1, blood platelet receptor glycoprotein Ib-IX-V complex (GPIb) (human, UniProt P07359 17-652; P13224 26-206; P14770 17-177; P40197 17-560).
T1 construct: whole, on cells; also called GPIb complex; GPIb receptor
T1 sequence (P07359 17-652, chain 1 of 4): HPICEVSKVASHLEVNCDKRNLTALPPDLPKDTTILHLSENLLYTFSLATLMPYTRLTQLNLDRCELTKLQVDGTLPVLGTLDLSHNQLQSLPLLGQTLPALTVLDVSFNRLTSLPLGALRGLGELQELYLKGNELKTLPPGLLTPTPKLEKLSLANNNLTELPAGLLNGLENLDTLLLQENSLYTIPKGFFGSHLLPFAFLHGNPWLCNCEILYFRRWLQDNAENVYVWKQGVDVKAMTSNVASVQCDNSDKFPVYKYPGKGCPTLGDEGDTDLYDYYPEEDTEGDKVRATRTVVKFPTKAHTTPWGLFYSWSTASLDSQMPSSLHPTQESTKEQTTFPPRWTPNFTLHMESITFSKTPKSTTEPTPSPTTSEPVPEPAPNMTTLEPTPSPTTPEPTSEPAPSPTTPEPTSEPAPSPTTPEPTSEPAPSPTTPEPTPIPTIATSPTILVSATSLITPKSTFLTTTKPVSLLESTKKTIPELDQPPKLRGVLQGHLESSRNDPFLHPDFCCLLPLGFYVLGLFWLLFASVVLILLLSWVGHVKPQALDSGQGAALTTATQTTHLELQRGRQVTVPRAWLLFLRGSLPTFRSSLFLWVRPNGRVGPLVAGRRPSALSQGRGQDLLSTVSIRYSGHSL
T1 sequence (P13224 26-206, chain 2 of 4): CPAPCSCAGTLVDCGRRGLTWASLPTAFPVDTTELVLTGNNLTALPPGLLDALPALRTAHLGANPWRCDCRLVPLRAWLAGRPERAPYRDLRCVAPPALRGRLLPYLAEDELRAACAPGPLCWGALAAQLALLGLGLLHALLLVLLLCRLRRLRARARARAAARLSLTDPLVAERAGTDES
T1 sequence (P14770 17-177, chain 3 of 4): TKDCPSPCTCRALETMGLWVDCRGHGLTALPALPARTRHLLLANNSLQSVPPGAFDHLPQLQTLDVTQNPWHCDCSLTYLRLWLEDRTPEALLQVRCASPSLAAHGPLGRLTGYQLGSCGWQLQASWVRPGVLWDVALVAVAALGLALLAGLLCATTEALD
T1 sequence (P40197 17-560, chain 4 of 4): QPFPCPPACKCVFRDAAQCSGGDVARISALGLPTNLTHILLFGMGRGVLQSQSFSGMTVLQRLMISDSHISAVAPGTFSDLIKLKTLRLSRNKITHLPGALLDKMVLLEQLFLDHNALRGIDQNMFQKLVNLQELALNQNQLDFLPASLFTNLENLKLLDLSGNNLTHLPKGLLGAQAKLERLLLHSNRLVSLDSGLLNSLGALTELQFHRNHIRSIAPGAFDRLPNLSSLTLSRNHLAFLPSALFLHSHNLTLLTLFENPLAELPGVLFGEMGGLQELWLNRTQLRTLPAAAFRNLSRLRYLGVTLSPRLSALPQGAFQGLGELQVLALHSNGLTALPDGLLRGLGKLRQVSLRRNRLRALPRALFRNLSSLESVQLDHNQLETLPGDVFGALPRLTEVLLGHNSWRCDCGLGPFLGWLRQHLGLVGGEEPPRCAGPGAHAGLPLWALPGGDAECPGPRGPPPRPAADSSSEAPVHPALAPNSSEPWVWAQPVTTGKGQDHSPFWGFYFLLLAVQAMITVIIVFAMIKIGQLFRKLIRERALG
The experiment in a line: inhibition of static adhesion of human platelets to coated vWF-A1; grade C = IC50 lower than 1 µM. As for the experimental part: (§1) Platelet rich plasma was carefully transferred again to fresh containers, PGE1 (0.5 μg/ml, Sigma) was added and the suspension was allowed to rest for 5 min. This was followed by another centrifugation step for 15 min at 360 g. The supernatant was discarded and the cell pellets were carefully resuspended in tyrode buffer (NaCl, 137 mM (Sigma S-3014); KCl, 2.7 mM (Sigma P-9541); NaHCO₃,12 mM (Riedel deHaen 31437); NaH₂PO₄×2H₂O, 0.36 mM (Merck 6345); MgCl₂×6 H₂O, 1 mM (Sigma M-2670); Hepes, 10 mM (Sigma H-1016); glucose, 5.6 mM (Merck 8342); BSA, 0.1% (Sigma A7906)), and PGE1 (0.25 μg/ml) was added. After 5 min of resting the suspension was spun down for 15 min at 300 g. The supernatant was discarded and the pellets were carefully resuspended in TBS buffer (Tris-HCl, 50 mM (Fluka 93371); NaCl, 120 mM (Sigma S-3014); KCl, 2.7 mM (Sigma P-9541); CaCl₂, 0.05 mM (Sigma C-3306); MgCl₂×6 H₂O, 2 mM (Sigma M-2670); BSA, 0.1% (Sigma A7906); pH 7.4). The platelet count was adjusted to 2×10⁵ cells/μl, and the suspensions from individual donors were pooled at this stage. The platelets were allowed to rest for 30 min at room temperature before calcein AM (2.5 μM per 2×10⁵ cells/pi (Molecular Probes C-3099)) was added. This was followed by 15 min incubation in the dark. Cells were diluted to 5×10⁴ cells/μl and ReoPro (3 μg/ml (Centocor B. V., Leiden, N L)) was added, followed by a 10 min incubation period in the dark before adding the platelets to the assay plates.
(§2) 96 well plates (Greiner hb, black, clear bottom, F, 655097) were coated with human recombinant vWF-A1 domain (1.5 μg/well, AA 475-706, expressed in E. coli) in Tris buffer (pH 7.4; Tris-HCl, 25 mM; NaCl, 150 mM) and incubated for 1 h at room temperature. After washing the wells 3× with TBS, blocking buffer (TBS with 5% BSA) was added followed by an incubation for 1 h. The wells were washed again 3× with TBS before 200 μl TBS were added to each well, preventing them from drying out. TBS was flicked out and serial dilutions of the test compound were added. The washed and calcein AM labeled thrombocytes were added to the wells (2.5×10⁶ cells/well). Following an adhesion period of 1.5 h in the dark the wells were washed 3× with TBS. Measurement of fluorescence per well was performed in a SpectraMax M5 reader (Molecular Devices). From the raw data % inhibition and IC₅₀ values were calculated.
A word on the IC50: it is the concentration needed to halve the response being measured. A lower IC50 goes with higher potency. Molecule B1 displayed a half-maximal inhibitory concentration (IC50) of under 1000 nM. On to B2, for which the IC50 is under 1000 nM. Consider B3, for which the IC50 is under 1000 nM. Consider B4, for which the half-maximal inhibitory concentration (IC50) was under 1000 nM. Turning to B5, the IC50 was under 1000 nM. With B6, the half-maximal inhibitory concentration (IC50) is under 1000 nM.

B7 showed an IC50 of under 1000 nM. B8 had an IC50 of under 1000 nM. Still for that read-out and setting: next, B9: under 1000 nM.

The target of a further test is T1, blood platelet receptor glycoprotein …. The experiment in a line: inhibition of static adhesion of human platelets to coated vWF-A1; grade B = IC50 between 1 µM and 10 µM. As to the method:
as §1, §2
In turn, B10 registered an IC50 of 1000 to 10000 nM. Still for that read-out and setting: then B11, with 1000 to 10000 nM. Take cyclo([Ac6c]HNL[Ahp]TERMA) [Cyclo[Ac6-His-Asn-Leu-NH-(CH2)6-CO-Thr-Glu-Arg-Met-Ala]]: the IC50 lay within 1000 to 10000 nM.

B12 gave a 50% inhibitory concentration (IC50) of 1000 to 10000 nM. In the case of B13, the IC50 lay within 1000 to 10000 nM. Turning to B14, the concentration for half-maximal inhibition (IC50) was 1000 to 10000 nM.

The molecule B15 gave a half-inhibitory concentration (IC50) of 1000 to 10000 nM.

In turn, B16 displayed an IC50 of 1000 to 10000 nM.
